The values that follow come from patent US5559094A (Eli Lilly and Company, priority 1994, dated 1996).

Series [1] can be described thus: Near- and far-UV circular dichroism. The format is physicochemical. The conditions noted are these: mean residue ellipticity, variation of 3%. For orientation: Circular dichroism is the unequal absorption of left and right circularly polarised light.
Method: Protein stock solutions were prepared by dissolving a known mass of protein in either 20 mM Tris or 50 mM sodium phosphate and 50 mM sodium chloride, pH 7.8, followed by zinc oxide addition to a final concentration of 0.5 mol Zn per mol of protein monomer. The pH of the solution was readjusted to pH 7.8 as needed. The protein stock concentrations were determined by UV absorbance using an AVIV model 14DS double-beam spectrophotometer. […] All circular dichroism measurements were obtained using an AVIV Model 62DS spectrometer (Lakewood, N.J.) with results reported as mean residue ellipticity (MRE) having units of deg.cm^2.dmol^-1.
All samples were measured by far-UV CD at 23° C. using a 0.01 cm CD cell. The signal at 224 nm was recorded as a function of either m-cresol or KSCN concentration.
To further explore secondary structure, the far-UV CD spectra were collected from 250 nm to 200 nm using a 0.01 cm cuvette. To gain insight into the environment of the aromatic and disulfide amino acids the near-UV CD spectra were collected from 350 to 250 nm using a 0.1 cm cell.
For series [2] the following is noted: from NMR / x-ray crystallography literature; cited from earlier work.
Series [3] can be described thus: α-Helical analysis (CONTIN analysis from the circular dichroism spectra). Type of series: physicochemical. An excerpt: ^1 Determined by CONTIN analysis from the circular dichroism spectra.
A short description of series [4]: Equilibrium ultracentrifugation (aggregation state). Type of series: physicochemical. The conditions noted are these: 0.5 mol of Zn per mol of protein; 20 mM Tris pH 7.8; protein 1.5 to 5 mg/ml. Here is the method:
Equilibrium ultracentrifugation data was collected at 22° C. at equally spaced radial intervals using a Beckman Model XLA analytical ultracentrifuge Fullterton, Calif. Standard 30 mm and 12 mm centerpieces along with custom-made 3 mm centerpieces all made from charcoal-filled epon were used. Raw data from the chart recorder was converted to concentration versus radius using the internal calibration factors of the scanner. The weight average molecular weight was calculated according to the equation:
MW=RT/(1-Vp)ω^2.1r.1/C.dC/dr
where R is the gas constant, T is the temperature, ω is the rotor speed, r is the radius, C is the concentration, .rho. is the solvent density, and assuming ideal solutions. […] Least squares smoothing methods were used to calculate C and dC/dr.

The conditions of series [5]: injection of an acidic solution; cited from earlier work.

In the case of “Zn + Human Insulin: human insulin sample with Zn [reference compound]”, in series [1], the “Circular Dichroism, Wavelength 224 nm” value was -10892 deg.cm^2.dmol^-1; the “Circular Dichroism, Wavelength 251 nm” value is -121 deg.cm^2.dmol^-1; the “Circular Dichroism, Wavelength 276 nm” value is on record as -305 deg.cm^2.dmol^-1. For the same substance, in series [2], the “% Helix Theoretical” value was 47%.

For “Zn + asp^B1 gln^B13 Insulin: asp^B1 gln^B13 insulin sample with Zn”, in series [1], the “Circular Dichroism, Wavelength 224 nm” value is recorded as -14555 deg.cm^2.dmol^-1; the “Circular Dichroism, Wavelength 251 nm” value is reported as -426 deg.cm^2.dmol^-1; the “Circular Dichroism, Wavelength 276 nm” value is reported as -291 deg.cm^2.dmol^-1. Further, in series [3], the “% Helix Measured” value was found to be 65%.

For the substance “Zn + m-cresol + Human Insulin: human insulin sample with Zn and m-cresol [reference compound]”, in series [1], the “Circular Dichroism, Wavelength 224 nm” value is on record as -13488 deg.cm^2.dmol^-1; the “Circular Dichroism, Wavelength 251 nm” value is -425 deg.cm^2.dmol^-1; the “Circular Dichroism, Wavelength 276 nm” value is listed as -335 deg.cm^2.dmol^-1.

Turning to “Zn + m-cresol + asp^B1 gln^B13 Insulin: asp^B1 gln^B13 insulin sample with Zn and m-cresol”, in series [1], the “Circular Dichroism, Wavelength 224 nm” value is -14092 deg.cm^2.dmol^-1; the “Circular Dichroism, Wavelength 251 nm” value is -431 deg.cm^2.dmol^-1; the “Circular Dichroism, Wavelength 276 nm” value is on record as -384 deg.cm^2.dmol^-1. The “% Helix Measured” value in series [3] was 64%.

As to “Zn-Asp^B1 insulin: Asp^B1 insulin containing 0.5 mol of Zn per mol of protein”, the “aggregation state (weight average molecular weight)” value in series [4] is “hexamer”.

For “gln^B13 analog: literature insulin analog with gln at B13 that forms stable hexamers in the absence of Zn”, in series [5], the “reduction of insulin absorption rate after injection” value is recorded as 25%.
